Residue numbers refer to the chain shown, from its start. Names and notes keep the numbering of the source.
B1: ubiquitin-specific protease 5, wild type (enzyme, human, UniProt P45974 1-858, looked up)
chain: MAELSEEALLSVLPTIRVPKAGDRVHKDECAFSFDTPESEGGLYICMNTFLGFGKQYVERHFNKTGQRVYLHLRRTRRPKEEDPATGTGDPPRKKPTRLAIGVEGGFDLSEEKFELDEDVKIVILPDYLEIARDGLGGLPDIVRDRVTSAVEALLSADSASRKQEVQAWDGEVRQVSKHAFSLKQLDNPARIPPCGWKCSKCDMRENLWLNLTDGSILCGRRYFDGSGGNNHAVEHYRETGYPLAVKLGTITPDGADVYSYDEDDMVLDPSLAEHLSHFGIDMLKMQKTDKTMTELEIDMNQRIGEWELIQESGVPLKPLFGPGYTGIRNLGNSCYLNSVVQVLFSIPDFQRKYVDKLEKIFQNAPTDPTQDFSTQVAKLGHGLLSGEYSKPVPESGDGERVPEQKEVQDGIAPRMFKALIGKGHPEFSTNRQQDAQEFFLHLINMVERNCRSSENPNEVFRFLVEEKIKCLATEKVKYTQRVDYIMQLPVPMDAALNKEELLEYEEKKRQAEEEKMALPELVRAQVPFSSCLEAYGAPEQVDDFWSTALQAKSVAVKTTRFASFPDYLVIQIKKFTFGLDWVPKKLDVSIEMPEELDISQLRGTGLQPGEEELPDIAPPLVTPDEPKGSLGFYGNEDEDSFCSPHFSSPTSPMLDESVIIQLVEMGFPMDACRKAVYYTGNSGAEAAMNWVMSHMDDPDFANPLILPGSSGPGSTSAAADPPPEDCVTTIVSMGFSRDQALKALRATNNSLERAVDWIFSHIDDLDAEAAMDISEGRSAADSISESVPVGPKVRDGPGKYQLFAFISHMGTSTMCGHYVCHIKKEGRWVIYNDQKVCASEKPPKDLGYIYFYQRVAS
notes: ubiquitin-specific protease 5 (USP5), human; No removal of the His tag is described; also called USP5; USP5^WT; source: E. coli BL21 (DE3), purified (Ni-NTA, SEC)
B2: catalytically inactive USP5 C335A (enzyme, human, UniProt P45974 1-858, looked up)
chain: B1 chain with C335A
notes: ubiquitin-specific protease 5 (USP5), human, catalytic cysteine mutated; The His tag is used for detection in the TR-FRET assay; also called His-USP5^C335A; source: E. coli BL21 (DE3), purified (Ni-NTA, SEC)
B3: HA-SDE2UBL-PA, activity-based probe derived from SDE2UBL (domain or fragment, human, UniProt Q6IQ49 1-76, looked up)
chain: MAEAAALVWIRGPGFGCKAVRCASGRCTVRDFIHRHCQDQNVPVENFFVKCNGALINTSDTVQHGAVYSLEPRLCG
modifications: Gly77 replaced with a propargyl electrophilic warhead (C-terminal propargylamine)
notes: Silencing Defective 2 (SDE2), human, residues 1-76 (SDE2UBL with Gly77 truncated); Forms a covalent adduct with the catalytic cysteine of reactive enzymes; also called HA-SDE2UBL-ABP; SDE2UBL-ABP; not shown: HA, N-terminal, kept
B4: SDE2 N-terminal ubiquitin-like domain, SDE2UBL(1-77) (domain or fragment, human, UniProt Q6IQ49 1-77, looked up)
chain: MAEAAALVWIRGPGFGCKAVRCASGRCTVRDFIHRHCQDQNVPVENFFVKCNGALINTSDTVQHGAVYSLEPRLCGG
notes: Silencing Defective 2 (SDE2), human, residues 1-77 (ubiquitin-like domain ending in the Gly-Gly motif); source: E. coli BL21 (DE3), purified (Ni-NTA, SUMO protease cleavage, SEC); not shown: His, N-terminal, cleaved; SUMO, N-terminal, cleaved

Legend:
Conditions in all cases: both partners purified
monoubiquitin = molecular target: T1, monoubiquitin (UniProt P0CG48 1-76); test: ITC; ITC200 at 298 K; 50 mM HEPES, 100 mM NaCl, 1 mM TCEP, pH 7.5; SDE2 construct or monoubiquitin titrated into USP5 (10-12 µM); duplicate
T1 construct: ubiquitin, the mature monomer

[1] = molecular target: B1; test: thermal shift assay; USP5^WT incubated with ABP for 1 h at 37 °C in PBS, 1 mM DTT, then SYPRO orange, 10-95 °C; Tm of the USP5-ABP covalent complex; triplicate
[2] = molecular target: B1; test: ITC; ITC200 at 298 K; 50 mM HEPES, 100 mM NaCl, 1 mM TCEP, pH 7.5; SDE2 construct or monoubiquitin titrated into USP5 (10-12 µM); duplicate
[3] = molecular target: B2; test: as above

B1
binding result (monoubiquitin): binds

B2
binding result (monoubiquitin): binds

B3
Tm of the covalent complex [1]: 56.4 ± 0.2 °C

B4
Kd [2]: 26.6 ± 5 µM
Kd [3]: 1.67 µM

— paper doi:10.1101/2025.05.23.655772, “A Proteolytic Switch: USP5 controls SDE2 function via UBL-directed cleavage” (bioRxiv, 2025)
